Reference: patent publication US20260216328A1, “DISRUPTABLE LINKER COMPOSITIONS, SWITCHABLE BISPECIFIC T CELL NANOENGAGER (SWITCH-BITE) COMPOSITIONS COMPRISING THE SAME, AND METHODS OF USE THEREOF” (The Trustees of the University of Pennsylvania, priority 2023, published 2026)

What was measured:
[1] = Half-life and biodistribution of Blinatumomab and CD3/CD19 SiTE; format: in vivo, mouse
Experimental: FIGS. 17A-17F: half-life and in vivo biodistribution of Blinatumomab. FIGS. 17A-17B: Blinatumomab was labeled with Cy7 and was i.v. injected to healthy untreated mice. 10 μL of blood at 0, 1, 2, 4, 6, 12, 24, 36 and 48 h was collected and imaged using IVIS. The fluorescence signal at different time points were quantified (FIG. 17B). FIG. 17C: the biodistribution of Blinatumomab in healthy mice was also investigated 24 h after Blinatumomab-Cy7 injection. FIG. 17D: In order to mimic a clinical patient treatment, a mouse model was constructed with CD19 expression in the liver and a subcutaneous B-cell lymphoma model. Blinatumomab-Cy7 was i.v. injected at 0 h. The mice were euthanized at 24 h and the distribution of Blinatumomab-Cy7 in major organs and tumour was evaluated. The Blinatumomab-Cy7 mainly accumulates in the liver, spleen and tumour. The distribution of SiTE that targets human CD3 and human CD19 antigen was evaluated in both healthy untreated mice (FIG. 17E) and in a mouse model with CD19 expression in the liver and has a subcutaneous B-cell lymphoma tumour (FIG. 17F), similar results were obtained.
Encouraged by the results from the in vitro experiments, the controllable activity of SiTE was evaluated in vivo. […] It was also analyzed if the biodistribution of SiTE both in healthy NSG mice and in Raji tumour-bearing humanized NSG mice that express CD19 antigen in the liver. […]

[2] = test system: Raji-Luc-GFP tumour cells; experiment: Cytokine release syndrome in humanized NSG-SGM3 mice with Raji-Luc-GFP tumour; format: in vivo, mouse
Experimental: An in vivo imaging system (IVIS) was used to monitor tumour burden in vivo. […] FIGS. 41C-41E: Mouse body weight, temperature and survival curves, respectively. n=10 mice. […] The data in FIGS. 41C-41D and FIGS. 41F-41J were plotted as mean±s.d. (n=10) from three independent experiments. […] P value in FIG. 41E was determined using Log-rank (Mantel-Cox) test.
SiTE and Blinatumomab were also compared with regard to treating symptoms of CRS and neurotoxicity. The humanized mouse model was constructed as before, but this time the piggybac transposon system was not used to express CD19 in the mouse livers. This allowed better analysis of the effects of the SiTE on CRS and neurotoxicity (FIG. 41A). Raji-Luc-GFP cells were i.v. injected at day −14. Blinatumomab, SiTE or PBS were i.v. injected to the mice at day one. Mouse tumour burden, body weight, temperature, and plasma cytokine levels were monitored (FIGS. 41B-41J).

[3] = test system: Raji-Luc-GFP cells; experiment: Antitumour efficacy in normal NSG mice with Raji-Luc-GFP tumour; format: in vivo, mouse; details: days 1, 3, 5
Excerpt: FIGS. 43A-43C: comparison of the antitumour efficacy of SITE and Blinatumomab. In order to solely compare the antitumour capacity of Blinatumomab and the SiTE, CD19 antigen was not expressed in mouse liver so BiTNE or SiTE treatment will not induce on-target, off-tumour toxicity. Additionally, normal NSG mice (without humanization) were used to construct the tumour model so the mice will not develop CRS. FIG. 43A: Raji-Luc-GFP cells were i.v. injected to mice at day −14. Tumour bearing mice were treated with Blinatumomab or SiTE at days 1, 3, or 5. FIG. 43B: mice were imaged using IVIS at days 0, 5, 9, and 13 to monitor the tumour burden level. c, Quantification of the luminescence levels in FIG. 43B. The data in FIG. 43C were plotted as mean s.d. (n=5) f. P value in FIG. 43C was determined using one-way ANOVA.
In order to specifically assess the antitumour efficacy of Blinatumomab and the SiTE, expression of the CD19 antigen in the mouse liver was refrained from. By employing this approach, it was ensured that treatment with either Blinatumomab or SiTE would not elicit on-target, off-tumour toxicity. To further avoid the effect of CRS on the evaluation of the therapeutic outcome of Blinatumomab and SiTE, normal NSG mice were employed, devoid of humanization.

[4] = test system: Raji-Luc-GFP tumour cells; experiment: Blinatumomab vaccine effect and CRS after discontinuation; format: in vivo, mouse
Experimental: Raji tumour cells and human T cells were co-cultured in serum-free medium and were treated with Blinatumomab for 24 h. After that, the cell culture medium was collected and the proteins in the medium were analyzed using proteomics. FIG. 44A: Large amount of damage associated molecule patterns (DAMPs); and FIG. 44B: tumour associated antigens were detected in the cell culture medium. FIG. 44C: Raji tumour bearing humanized NSG mice were treated with three doses of Blinatumomab. […] Then, Raji-Luc-GFP cell viability was determined. […] The data in FIG. 44C are presented as mean±s.d. (n=5) f. P value in FIG. 44C was determined using one-way ANOVA.
FIGS. 45A-45C: CRS symptoms cannot be stopped by simply stop the administration of Blinatumomab. FIG. 45A: humanized NSG mice were i.v. injected with Raji-Luc-GFP cells on day −14. Then Blinatumomab were administrated at days 1, 3, or 5. FIG. 45B: IL-6 level in mouse blood were monitored. FIG. 45C: survival curve.
It was also investigated if Blinatumomab could also induce a vaccine effect. […] It was also questioned whether CRS could be halted by simply discontinuing the administration of Blinatumomab, owing to its inherent short half-life. […] The pronounced targeting of T cells and CD19-expressing cells, coupled with heightened activation of many immune cells, served to amplify the cytokine cascade, rendering it impervious to interruption by the mere discontinuation of Blinatumomab usage. These findings underscore the critical exigency for the development of an alternative to Blinatumomab, one that can be switched off as needed, in this rapidly evolving research field.

[5] = mouse, in vivo; cited from earlier work
[6] = test system: Raji-Luc-GFP tumour cells; experiment: Humanized immune system mice with liver CD19 and Raji-Luc-GFP tumour; details: SiTE targets human CD3/CD19
[7] = test system: Raji-Luc-GFP tumour cells; details: around day 33, after SiTE
Experimental: FIG. 42A: NSG-SGM3 mice were treated with Busulfan at day −50 to remove mouse bone marrow. At day −49, 10^5 human CD34^+ fetal liver cells were i.v. injected to let the mouse develop a human immune system. 10^6 Raji-Luc-GFP tumour cells were i.v. injected at day −14. At days 1, 3, and 5, PBS or SiTE was i.v. injected (in the PBS group, only PBS was injected to tumour-bearing mice). […] FIGS. 42B-42E: mouse body weight, temperature, IL-6 levels, and mouse survival curves, respectively. n=10 mice. The red stars in FIG. 42B indicate that mice were euthanized. FIG. 42F: measurements of IL-1 in mouse blood at different time points. n=10 mice. […] Brain H&E staining (FIG. 42I) and human CD68 immunohistochemistry (FIG. 42J) images of mice at day 35. The data in FIGS. 42B-42F were plotted as mean z s.d. (n=10) from three independent experiments.
It was also evaluated if the SiTE can help control neurotoxicity. In the clinic, neurotoxicity is usually delayed and occurs several […] after CRS onset. Tumour-bearing mice were treated with SiTE at days 1, 3 and 5 (FIG. 42A). […] Rather than use a preventative strategy for treating CRS (FIGS. 40A-40M), here Tocilizumab was used to treat CRS when symptoms presented, so that it can be compared directly with the SiTE strategy. […] Studies have shown that IL-1 is the major cause of neurotoxicity.

Substance | biodistribution ([1]; Raji tumour-bearing humanized mice expressing human CD19 in the liver) | biodistribution ([1]; healthy mice with a humanized immune system, i.v.) | fever and body weight ([2]; 5 mg/kg, days 1, 3, 5, SiTE targets human CD3/CD19) | plasma IL-6, IFN-γ, TNF-α, CXCL10 and CCL3 concentrations ([2]; after treatment) | tumour growth [3] | release of DAMPs and tumour antigens from tumour cells ([4]; high dose, Raji cells and human T cells, 24 h) | tumour cell killing by T cells from treated mice ([4]; high dose, vs T cells from PBS-treated mice) | serum IL-6 ([4]; humanized NSG mice, persisted after cessation) | half-life [5] | tumour cell killing (IVIS) ([6]; 5 mg/kg i.v. x3, Tocilizumab pre-treatment) | on-target, off-tumour toxicity and CRS ([6]; 5 mg/kg i.v. x3) | signs of lethal neurological syndrome [7]
Blinatumomab: first BiTE to receive FDA approval; links CD3-positive T cells to CD19-expressing B cell cancers | high accumulation of Blinatumomab in the tumours, livers, and spleens | accumulated greatly in the spleens | induced high fever and body weight loss | greatly increased | substantial suppression of tumour growth | substantial release of DAMPs and tumour antigens | substantial tumour cell killing | notable elevation of IL-6 levels | 2.11 h | induced effective tumour cell killing | not only induced on-target, off-tumour toxicity in the liver, but led to strong CRS | –
Tocilizumab: commercialized drug for CRS treatment; antibody for the IL-6 receptor | – | – | – | – | – | – | – | – | – | – | – | developed sudden paralysis
